# Source: patent US20080267882A1, “Imaging compounds, methods of making imaging compounds, methods of imaging, therapeutic compounds, methods of making therapeutic compounds, and methods of therapy” (Stanford University, priority 2007, published 2008)
# Like-named read-outs stand apart in the source and are kept apart here.
# Columns and labels:
# integrin αvβ3 = target: T1, integrin αvβ3 (Homo sapiens, UniProt P05106+P06756); test: competitive cell binding assay using ^125I-echistatin on U87MG cells; details: for IC50: n=3, read-out: IC50 (inhibition of ^125I-echistatin binding to U87MG cells)
# T1 construct: evaluated using U87MG cells (integrin αvβ3-positive); endogenous in cells; host or cells: U87MG human glioblastoma cells (ATCC)
# Method: Experiments were performed on U87MG human glioblastoma cells with triplicate samples as previously reported.
# In vitro integrin αvβ3-binding affinities and specificities of RGD4, PRGD4 and FPRGD4 were assessed via displacement cell binding assays using ^125I-echistatin as the integrin αvβ3-specific radioligand. Experiments were performed on U87MG human glioblastoma cells by the method previously described (J Nucl Med. 2005;46:1707-1718 J Nucl Med. 2006;47:1172-1180, which is incorporated herein by reference for the corresponding discussion). […] Experiments were performed with triplicate samples.
# Experiments were performed with triplicate samples.
# In vitro integrin-binding affinity and specificity of RGD multimers and DOTA-RGD multimers were assessed via competitive cell binding assays using ^125I-echistatin as the integrin αvβ3-specific radioligand (J Nucl Med. 2005;46:1707-1718, which is incorporated herein by reference for the corresponding discussion). […] Experiments were performed with triplicate samples.
# U87MG cells = test: cell adhesion assay on vitronectin coated plates; type: cell-based, human; details: vitronectin coated plates; n=4; read-out: calculated IC50 (inhibition of U87MG cell adhesion)
# Method: Ninety-six well plates were coated with 2 μg/mL of fibronectin or vitronectin (Sigma-Aldrich) in PBS at 4° C. overnight and treated with 2% bovine serum albumin (BSA) for 1 h at 37° C. U87MG cells (human glioblastoma, ATCC; 2×10^5 cells/mL) with various concentrations of RGD multimers (50 nM, 200 nM, 800 nM) in 100 μL serum-free Dulbecco's modified Eagle's medium (DMEM) containing 0.1% BSA were incubated for 20 min at 37° C. The resulting mixture was added to the plates and incubated for 1 h at 37° C. Plates treated with BSA only were used as negative control. After removal of the medium by aspiration, 0.04% crystal violet solution was added and incubated for 10 min at room temperature. The wells were washed three times with PBS and 20 μL Triton X-100 were added for permeabilization. Distilled water (80 μL) was then added and the number of adherent cells was assessed with a microplate reader (Tecan; measurement wavelength: 550 nm; reference wavelength: 630 nm).
# [1] = biodistribution of ^3H-PTX and ^3H-RGD2−PTX in MDA-MB-435 tumor-bearing mice; type: in vivo, mouse; details: female, athymic nude (nu/nu), mouse, iv, 2.9 umol/kg, total radioactivity
# Method: (§1) All animal experiments were performed in compliance with the guidelines for the care and use of research animals established by the Stanford University's Animal Studies Committee. Female athymic nude mice (nu/nu) were obtained from Harlan (Indianapolis, Ind.) at 6-8 weeks of age and were kept under sterile conditions. The MDA-MB-435 cells were harvested and suspended in sterile PBS at a concentration of 5×10^7 cells/mL. Viable cells (5×10^6) in PBS (100 μL) were injected orthotopically in the right mammary fat pad. […] Tumor growth was followed by caliper measurements of perpendicular measures of the tumor. The tumor volume was estimated by the formula: tumor volume=a×(b^2)/2, where a and b are the tumor length and width respectively in mm.
# (§2) The animals were euthanized at 4, 24 and 48 h post injection and major organs and tissues were collected correspondingly. Approximately 100 mg of the tissue was added to glass scintillation vials containing 1 mL of tissue solubilizer SoluEne®-350 (Perkin-Elmer, Waltham, Mass.). These samples were digested at 55° C. for overnight followed by bleaching to obtain the decolorized samples. Chemiluminescence was reduced by the addition of glacial acetic acid. Hionic-Fluor liquid scintillation cocktail (Perkin-Elmer) was added to all samples, which were then counted with a Tri-Carb 2800TR liquid scintillation Analyzer (Perkin-Elmer).
# [2] = system: MDA-MB-435 tumor-bearing mice; test: as above; type: in vivo, mouse
# Method: as §1, §2
# [3] = tumor/kidney, read-out: tumor/kidney ratio
# [4] = tumor/liver, read-out: tumor/liver ratio
# [5] = tumor/muscle, read-out: tumor/muscle ratio
compound,measurement,setting,value
"N=C(N)NCCC[C@@H]1NC(=O)[C@H](CCCCNC(=O)CC[C@H](NC(=O)CC[C@H](NC(=O)COCCOCCOCCNC(=O)c2ccc(F)cc2)C(=O)N[C@@H](CCC(=O)NCCCC[C@@H]2NC(=O)[C@@H](Cc3ccc(O)cc3)NC(=O)[C@H](CC(=O)O)NC(=O)CNC(=O)[C@H](CCCNC(=N)N)NC2=O)C(=O)NCCCC[C@@H]2NC(=O)[C@@H](Cc3ccc(O)cc3)NC(=O)[C@H](CC(=O)O)NC(=O)CNC(=O)[C@H](CCCNC(=N)N)NC2=O)C(=O)NCCCC[C@@H]2NC(=O)[C@@H](Cc3ccc(O)cc3)NC(=O)[C@H](CC(=O)O)NC(=O)CNC(=O)[C@H](CCCNC(=N)N)NC2=O)NC(=O)[C@@H](Cc2ccc(O)cc2)NC(=O)[C@H](CC(=O)O)NC(=O)CNC1=O [FPRGD4, FB-NH-mini-PEG-CO-E{E[c(RGDyK)]2}2]",IC50,integrin αvβ3; Example 2,0.0377 ± 0.007 µM
"N=C(N)NCCC[C@@H]1NC(=O)[C@H](CCCCNC(=O)CC[C@H](NC(=O)CC[C@H](NC(=S)Nc2ccc(C[C@H]3CN(CC(=O)O)CCN(CC(=O)O)CCN3CC(=O)O)cc2)C(=O)N[C@@H](CCC(=O)NCCCC[C@@H]2NC(=O)[C@@H](Cc3ccc(O)cc3)NC(=O)[C@H](CC(=O)O)NC(=O)CNC(=O)[C@H](CCCNC(=N)N)NC2=O)C(=O)NCCCC[C@@H]2NC(=O)[C@@H](Cc3ccc(O)cc3)NC(=O)[C@H](CC(=O)O)NC(=O)CNC(=O)[C@H](CCCNC(=N)N)NC2=O)C(=O)NCCCC[C@@H]2NC(=O)[C@@H](Cc3ccc(O)cc3)NC(=O)[C@H](CC(=O)O)NC(=O)CNC(=O)[C@H](CCCNC(=N)N)NC2=O)NC(=O)[C@@H](Cc2ccc(O)cc2)NC(=O)[C@H](CC(=O)O)NC(=O)CNC1=O [NOTA-RGD4, NOTA-E{E[c(RGDyK)]2}2]",fold higher integrin αvβ3 affinity than NOTA-RGD1,integrin αvβ3; Example 5,13 fold
same,fold increase of integrin avidity compared to NOTA-RGD2,integrin αvβ3; Example 5,3 fold
same,IC50,integrin αvβ3; Example 5,0.0161 ± 0.0031 µM
"N=C(N)NCCC[C@@H]1NC(=O)[C@H](CCCCNC(=O)CC[C@H](NC(=O)CC[C@H](NC(=O)COCCOCCOCCN)C(=O)N[C@@H](CCC(=O)NCCCC[C@@H]2NC(=O)[C@@H](Cc3ccc(O)cc3)NC(=O)[C@H](CC(=O)O)NC(=O)CNC(=O)[C@H](CCCNC(=N)N)NC2=O)C(=O)NCCCC[C@@H]2NC(=O)[C@@H](Cc3ccc(O)cc3)NC(=O)[C@H](CC(=O)O)NC(=O)CNC(=O)[C@H](CCCNC(=N)N)NC2=O)C(=O)NCCCC[C@@H]2NC(=O)[C@@H](Cc3ccc(O)cc3)NC(=O)[C@H](CC(=O)O)NC(=O)CNC(=O)[C@H](CCCNC(=N)N)NC2=O)NC(=O)[C@@H](Cc2ccc(O)cc2)NC(=O)[C@H](CC(=O)O)NC(=O)CNC1=O [PRGD4, NH2-mini-PEG-CO-E{E[c(RGDyK)]2}2]",IC50,integrin αvβ3; Example 2,0.0465 ± 0.0053 µM
"N=C(N)NCCC[C@@H]1NC(=O)[C@H](CCCCNC(=O)CC[C@H](N)C(=O)NCCCC[C@@H]2NC(=O)[C@@H](Cc3ccc(O)cc3)NC(=O)[C@H](CC(=O)O)NC(=O)CNC(=O)[C@H](CCCNC(=N)N)NC2=O)NC(=O)[C@@H](Cc2ccc(O)cc2)NC(=O)[C@H](CC(=O)O)NC(=O)CNC1=O [RGD2, E[c(RGDyK)]2, reference compound]",IC50,U87MG cells,0.7 µM
CC(=O)O[C@H]1C(=O)[C@@]2(C)[C@H]([C@H](OC(=O)c3ccccc3)[C@]3(O)C[C@H](OC(=O)[C@H](OC(=O)CCC(=O)N[C@@H](CCC(=O)NCCCC[C@@H]4NC(=O)[C@@H](Cc5ccc(O)cc5)NC(=O)[C@H](CC(=O)O)NC(=O)CNC(=O)[C@H](CCCNC(=N)N)NC4=O)C(=O)NCCCC[C@@H]4NC(=O)[C@@H](Cc5ccc(O)cc5)NC(=O)[C@H](CC(=O)O)NC(=O)CNC(=O)[C@H](CCCNC(=N)N)NC4=O)[C@@H](NC(=O)c4ccccc4)c4ccccc4)C(C)=C1C3(C)C)[C@]1(OC(C)=O)CO[C@@H]1C[C@@H]2O [^3H-RGD2−PTX],tissue to tissue ratio at 4 h,[1]; [3],0.25
same,tissue to tissue ratio at 24 h,[1]; [3],0.68
same,tissue to tissue ratio at 48 h,[1]; [3],0.53
same,tissue to tissue ratio at 4 h,[1]; [4],0.29
same,tissue to tissue ratio at 24 h,[1]; [4],0.45
same,tissue to tissue ratio at 48 h,[1]; [4],0.27
same,tissue to tissue ratio at 4 h,[1]; [5],2.86
same,tissue to tissue ratio at 24 h,[1]; [5],2.82
same,tissue to tissue ratio at 48 h,[1]; [5],1.74
same,"tissue concentration, Blood",[2]; 4 h,101.7 ± 30.8 ng/g
same,"tissue concentration, Heart",[2]; 4 h,228.7 ± 29.8 ng/g
same,"tissue concentration, Intestine",[2]; 4 h,127.8 ± 20.3 ng/g
same,"tissue concentration, Kidney",[2]; 4 h,1421.6 ± 289.8 ng/g
same,"tissue concentration, Liver",[2]; 4 h,1252.9 ± 109.9 ng/g
same,"tissue concentration, Lung",[2]; 4 h,300.4 ± 30.9 ng/g
same,"tissue concentration, MDA-MB-435 tumor",[2]; 4 h,357.5 ± 62.62 ng/g
same,"tissue concentration, Muscle",[2]; 4 h,125.1 ± 24.0 ng/g
same,"tissue concentration, Skin",[2]; 4 h,144.1 ± 15.9 ng/g
same,"tissue concentration, Spleen",[2]; 4 h,322.3 ± 59.3 ng/g
same,"tissue concentration, Stomach",[2]; 4 h,119.0 ± 16.7 ng/g
same,tumor/muscle ratio,[2]; 4 h,2.86
same,"tissue concentration, Liver","[2]; 4 h, listed as 3H-RGD2-PTX",1252.9 ± 109.9 ng/g
same,"tissue concentration, MDA-MB-435 tumor","[2]; 4 h, listed as 3H-RGD2-PTX",357.5 ± 62.6 ng/g
same,"tissue concentration, Blood",[2]; 24 h,143.1 ± 18.0 ng/g
same,"tissue concentration, Heart",[2]; 24 h,170.7 ± 18.6 ng/g
same,"tissue concentration, Intestine",[2]; 24 h,52.1 ± 7.5 ng/g
same,"tissue concentration, Kidney",[2]; 24 h,338.9 ± 22.1 ng/g
same,"tissue concentration, Liver",[2]; 24 h,510.4 ± 28.9 ng/g
same,"tissue concentration, Lung",[2]; 24 h,238.6 ± 75.6 ng/g
same,"tissue concentration, MDA-MB-435 tumor",[2]; 24 h,229.4 ± 50.4 ng/g
same,"tissue concentration, Muscle",[2]; 24 h,81.2 ± 11.4 ng/g
same,"tissue concentration, Skin",[2]; 24 h,87.2 ± 16.1 ng/g
same,"tissue concentration, Spleen",[2]; 24 h,228.7 ± 39.4 ng/g
same,"tissue concentration, Stomach",[2]; 24 h,71.63 ± 9.5 ng/g
same,tumor/muscle ratio,[2]; 24 h,2.82
same,"tissue concentration, MDA-MB-435 tumor","[2]; 24 h, listed as 3H-RGD2-PTX",229.4 ± 50.4 ng/g
same,"tissue concentration, Blood",[2]; 48 h,225.4 ± 12.8 ng/g
same,"tissue concentration, Heart",[2]; 48 h,222.5 ± 16.2 ng/g
same,"tissue concentration, Intestine",[2]; 48 h,50.8 ± 9.5 ng/g
same,"tissue concentration, Kidney",[2]; 48 h,281.8 ± 32.6 ng/g
same,"tissue concentration, Liver",[2]; 48 h,545.3 ± 30.6 ng/g
same,"tissue concentration, Lung",[2]; 48 h,207.8 ± 48.2 ng/g
same,"tissue concentration, MDA-MB-435 tumor",[2]; 48 h,148.8 ± 40.2 ng/g
same,"tissue concentration, Muscle",[2]; 48 h,85.6 ± 28.0 ng/g
same,"tissue concentration, Skin",[2]; 48 h,66.0 ± 9.1 ng/g
same,"tissue concentration, Spleen",[2]; 48 h,227.9 ± 28.2 ng/g
same,"tissue concentration, Stomach",[2]; 48 h,71.7 ± 12.2 ng/g
same,tumor/muscle ratio,[2]; 48 h,1.74
same,"tissue concentration, MDA-MB-435 tumor","[2]; 48 h, listed as 3H-RGD2-PTX",148.8 ± 40.2 ng/g
